The results in this text go back to doi:10.1101/2021.02.19.432017 (bioRxiv, 2021).

T1: Kindlin-2 (human, UniProt Q96AC1 1-680)
T1 sequence: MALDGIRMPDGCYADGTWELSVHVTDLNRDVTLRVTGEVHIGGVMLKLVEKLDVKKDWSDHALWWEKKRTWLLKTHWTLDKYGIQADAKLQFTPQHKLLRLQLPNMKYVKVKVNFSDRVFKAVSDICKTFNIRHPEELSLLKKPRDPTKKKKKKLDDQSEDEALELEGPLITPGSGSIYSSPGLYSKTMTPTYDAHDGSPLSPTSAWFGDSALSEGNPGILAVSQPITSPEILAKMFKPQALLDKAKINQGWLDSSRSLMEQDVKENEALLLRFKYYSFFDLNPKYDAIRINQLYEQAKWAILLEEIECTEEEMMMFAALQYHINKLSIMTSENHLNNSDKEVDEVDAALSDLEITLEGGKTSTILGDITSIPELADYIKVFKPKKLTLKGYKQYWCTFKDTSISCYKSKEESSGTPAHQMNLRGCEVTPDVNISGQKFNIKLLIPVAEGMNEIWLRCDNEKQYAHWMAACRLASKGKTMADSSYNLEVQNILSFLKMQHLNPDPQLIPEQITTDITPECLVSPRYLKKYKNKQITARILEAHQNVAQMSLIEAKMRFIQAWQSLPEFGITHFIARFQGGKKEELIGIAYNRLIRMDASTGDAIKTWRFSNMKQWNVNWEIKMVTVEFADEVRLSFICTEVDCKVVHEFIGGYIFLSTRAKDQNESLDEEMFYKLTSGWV

B1: Ras suppressor-1 (Rsu-1), wild type (natural protein)
chain: MSKSLKKLVEESREKNQPEVDMSDRGISNMLDVNGLFTLSHITQLVLSHNKLTMVPPNIAELKNLEVLNFFNNQIEELPTQISSLQKLKHLNLGMNRLNTLPRGFGSLPALEVLDLTYNNLSENSLPGNFFYLTTLRALYLSDNDFEILPPDIGKLTKLQILSLRDNDLISLPKEIGELTQLKELHIQGNRLTVLPPELGNLDLTGQKQVFKAENNPWVTPIADQFQLGVSHVFEYIRSETYKYLYGRHMQANPEPPKKNNDKSKKISRKPLAAKNR
B2: PINCH-2 LIM5S (size exclusion) (domain or fragment)
chain: GDVCYNCSHVIEGDVVSALNKAWCVSCFSCSTCNSKLTLKNKFVEFDMKPVCKRCYEKFPLELKKRLKKLSELTSRK
B3: Integrin linked kinase (ILK), subunit of the IPP complex (natural protein)
chain: MDDIFTQCREGNAVAVRLWLDNTENDLNQGDDHGFSPLHWACREGRSAVVEMLIMRGARINVMNRGDDTPLHLAASHGHRDIVQKLLQYKADINAVNEHGNVPLHYACFWGQDQVAEDLVANGALVSICNKYGEMPVDKAKAPLRELLRERAEKMGQNLNRIPYKDTFWKGTTRTRPRNGTLNKHSGIDFKQLNFLTKLNENHSGELWKGRWQGNDIVVKVLKVRDWSTRKSRDFNEECPRLRIFSHPNVLPVLGACQSPPAPHPTLITHWMPYGSLYNVLHEGTNFVVDQSQAVKFALDMARGMAFLHTLEPLIPRHALNSRSVMIDEDMTARISMADVKFSFQCPGRMYAPAWVAPEALQKKPEDTNRRSADMWSFAVLLWELVTREVPFADLSNMEIGMKVALEGLRPTIPPGISPHVCKLMKICMNEDPAKRPKFDMIVPILEKMQDK

Experiment in all cases: SEC
On the technique in general: Size exclusion chromatography separates by hydrodynamic size, large species first.

Test [1] has as its target PINCH-1 (residues 1-325), subunit of the IPP complex (human, UniProt P48059 1-325).
The target in test [2] is B1.
The next test deals with T1, Kindlin-2.

Chain of PINCH-1 (residues 1-325), subunit of the IPP complex (P48059 whole entry, the tested form may be a part, one chain of several): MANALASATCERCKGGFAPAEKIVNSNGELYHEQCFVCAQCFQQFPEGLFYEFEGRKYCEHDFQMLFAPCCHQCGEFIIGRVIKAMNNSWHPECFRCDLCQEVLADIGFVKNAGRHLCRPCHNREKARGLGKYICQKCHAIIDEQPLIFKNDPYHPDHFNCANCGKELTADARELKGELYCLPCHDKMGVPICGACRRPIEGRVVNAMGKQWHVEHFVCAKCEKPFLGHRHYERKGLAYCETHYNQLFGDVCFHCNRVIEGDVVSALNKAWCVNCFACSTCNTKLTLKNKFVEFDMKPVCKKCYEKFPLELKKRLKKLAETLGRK

B1: the binding result in test [1] was “binds”.
As to B2, the binding result in test [2] is “binds”.
For B3, the binding result with Kindlin-2 was “binds”.
